Data: patent US20200199212A1

Legend:
[1] = target: rat LPL on HEK293 cells (rat) (UniProt Q06000); assay: cell-based or functional assay
[2] = target: cynomolgus LPL on HEK293 cells (cynomolgus); assay: cell-based or functional assay

Chain of rat LPL on HEK293 cells (rat) (Q06000 28-474): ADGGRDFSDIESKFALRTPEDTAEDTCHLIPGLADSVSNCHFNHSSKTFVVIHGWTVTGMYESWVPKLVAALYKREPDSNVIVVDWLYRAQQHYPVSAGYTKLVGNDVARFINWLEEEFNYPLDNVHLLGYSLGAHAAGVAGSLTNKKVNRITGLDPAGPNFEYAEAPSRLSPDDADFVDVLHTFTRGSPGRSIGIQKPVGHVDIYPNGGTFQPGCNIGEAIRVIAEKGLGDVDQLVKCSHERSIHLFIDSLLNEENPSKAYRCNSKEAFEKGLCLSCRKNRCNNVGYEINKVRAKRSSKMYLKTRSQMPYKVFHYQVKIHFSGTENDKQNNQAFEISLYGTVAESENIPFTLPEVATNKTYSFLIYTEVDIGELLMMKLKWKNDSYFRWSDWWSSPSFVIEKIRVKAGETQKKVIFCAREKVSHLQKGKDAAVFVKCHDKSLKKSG

## rat ANGPTL3/8 complex (from UniProt F7FHP0 17-446)
[1]
  IC80 concentration (inhibition of LPL activity): 0.81 nM

## cyno ANGPTL3/8 complex (from UniProt A0A2K5UDC5 17-460)
[2]
  IC80 concentration (inhibition of LPL activity): 0.38 nM
